Data: the supplement of paper PMC10266784

B1: library; numbered along this chain (parent)
chain: MAAAAAAAAEQQSSNGPVKKSMREKAVERRSVNKEHNSNFKAGYIPIDEDRLHKTGLRGRKGNLAICVIILLFILAVINLIITLVIWAVIRIGPNGCDSMEFHESGLLRFKQVSDMGVIHPLYKSTVGGRRNENLVITGNNQPIVFQQGTTKLSVENNKTSITSDIGMQFFDPRTQNILFSTDYETHEFHLPSGVKSLNVQKASTERITSNATSDLNIKVDGRAIVRGNEGVFIMGKTIEFHMGGNMELKAENSIILNGSVMVSTTRLPSSSSGDQLGSGDWVRYKLCMCADGTLFKVQVTSQNMGCQISDNPCGNTH

Variants of: B1
Experiment: SGCB cell-surface expression functional score (HA stain, bin4 vs bin1, normalised to synonymous) (log10 ratio); higher = more cell-surface SGCB (functional)
In short: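 HEK293 cells stably expressing alpha-, gamma- and delta-sarcoglycan received codon-saturation libraries of HA-tagged, YFP-fused human beta-sarcoglycan by lentiviral transduction at MOI <0.1, performed in duplicate. Cells positive for YFP were sorted after 72 hours and cultured for 5–7 days, then stained on ice with Alexa Fluor 647 anti-HA and fixed. Fixed cells were sorted into four 5% intensity bins and amplicon-sequenced, and the log ratio of highest-bin to lowest-bin variant frequency, as a median over codons and transductions, gives the functional score. Per section, synonymous variants were scaled to mean 0, SD 0.5.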

| Variant | SGCB cell-surface expression functional score (log10) |
| --- | --- |
| Y44S | 0.14 |
| G56I | 0.26 |
| Q201V | 0.47 |
| I86V | 0.32 |
| T266M | 1.39 |
| S270V | 0.24 |
| A291V | -0.85 |
| V145L | -0.09 |
| V220F | -0.09 |
| I256H | 0.01 |
| R23A | -0.06 |
| L108H | -0.95 |
| K41A | 0.77 |
| T160N | -0.8 |
| K19S | 0.21 |
| I256A | -0.2 |
| P94K | 0.29 |
| E188D | -0.04 |
| K124F | -0.08 |
| S125H | -0.37 |
| S197F | -2.04 |
| S210M | -1.94 |
| L179G | -0.53 |
| Q169Y | -0.36 |

| Variant | SGCB cell-surface expression functional score (log10) |
| --- | --- |
| P192W | -1.19 |
| L107C | 0.24 |
| A76W | 0.14 |
| T317Q | 0.03 |
| L107S | -0.46 |
| L191G | -1.07 |
| G93P | -1.64 |
| M168E | -0.66 |
| I225T | 0.51 |
| Q176I | -0.61 |
| P143G | -0.72 |
| I86H | -1.91 |
| F40S | 0.16 |
| A42S | 0.1 |
| V113M | -0.22 |
| G62D | 0.29 |
| K159L | 0.31 |
| T150C | 0.25 |
| N258W | 0 |
| E101W | -1.04 |
| I162F | -0.81 |
| L191R | -1.37 |
| E188L | -1.16 |
| P269F | 0.8 |

| Variant | SGCB cell-surface expression functional score (log10) |
| --- | --- |
| I256V | 0.31 |
| R174F | -0.97 |
| P313W | -0.38 |
| E10S | 0.03 |
| E49I | 0.51 |
| K196M | 0.21 |
| T186E | 0.13 |
| S161I | -0.06 |
| S31L | 0.11 |
| R227F | -0.49 |
| A212R | -1.47 |
| P192V | -1.19 |
| D275W | -0.16 |
| D281T | -0.28 |
| G43E | 0.18 |
| K152N | -0.11 |
| H36V | 0.28 |
| N141P | -0.87 |
| A5W | 0.56 |
| S125N | -0.2 |
| V27G | -0.22 |
| A26P | 0.09 |
| I255D | -0.53 |
| A65P | -0.28 |

| Variant | SGCB cell-surface expression functional score (log10) |
| --- | --- |
| N37D | -0.35 |
| S302P | -0.74 |
| F233C | -0.13 |
| V155Q | -1.48 |
| C314L | -0.5 |
| M1A | 0.12 |
| M305S | -0.39 |
| I47Y | 0.65 |
| F189Q | -1.04 |
| G117P | -1.21 |
| S164K | -0.97 |
| K159Y | -0.79 |
| G293L | -0.36 |
| E156T | -0.18 |
| S161M | -0.34 |
| A4N | -0.48 |
| E252G | 0.39 |
| S193E | 1.32 |
| P121T | -0.36 |
| G194K | 0.01 |
| T160M | -1.02 |
| D292Y | -0.33 |
| V77L | -0.16 |
| L108N | -2.59 |

| Variant | SGCB cell-surface expression functional score (log10) |
| --- | --- |
| I90M | -0.16 |
| N316E | -0.68 |
| S214N | -0.1 |
| I239T | 0.15 |
| W282R | 0.12 |
| S193C | 0.3 |
| L179T | -1.12 |
| T151N | -0.56 |
| T151F | -1 |
| S114D | -1.53 |
| I69K | -0.04 |
| D98W | -0.73 |
| R60V | -0.09 |
| F189S | -1.1 |
| L64H | 0.16 |
| H36W | -0.09 |
| T317I | 0.05 |
| G194H | 0.27 |
| V89R | -0.63 |
| F171Y | 0.03 |
| L216N | -1.72 |
| P46L | -0.2 |
| G167T | -1.32 |
| F180A | -2.1 |

| Variant | SGCB cell-surface expression functional score (log10) |
| --- | --- |
| M168D | -1.62 |
| N141Q | -0.08 |
| V300G | -0.65 |
| A203P | -0.92 |
| I162L | -0.6 |
| T238H | 0.24 |
| V263Q | -1.36 |
| E10M | -0.03 |
| V89T | -0.3 |
| G236N | -1.82 |
| S270T | 0.45 |
| A4Y | -0.14 |
| K250T | 0.83 |
| R109M | -0.41 |
| I166K | -0.2 |
| Q201R | 0.39 |
| M235I | 0.26 |
| V226R | -1.54 |
| W282E | -0.07 |
| I255N | -1.5 |
| G59D | 0.04 |
| S31E | 0.24 |
| I162S | -1.09 |
| K202P | -0.97 |

| Variant | SGCB cell-surface expression functional score (log10) |
| --- | --- |
| Q303L | -0.16 |
| G293F | -0.08 |
| D215Q | -1.03 |
| I178Q | -0.75 |
| Q12C | -0.19 |
| T213A | -0.44 |
| S38G | 0.07 |
| T317D | -1.71 |
| G245R | 0.49 |
| V68R | 0.06 |
| G194C | -0.15 |
| N37Q | -0.21 |
| I86F | -0.48 |
| R267E | -0.053 |
| D311G | 0.11 |
| W87Q | 0.02 |
| E156P | -0.84 |
| D281I | -0.27 |
| R60E | 0.4 |
| Q11C | 0.65 |
| I234V | 0.49 |
| L108R | -1.09 |
| A65D | 0.08 |
